For one series, the system named is antisera CF1064. As to conditions: ELISA and lateral flow, FIG. 19. The source says: To refine the peptide design and remove peripheral interactions of antibodies not binding the galactose moiety in the peptide, the original sequence MOL136 was truncated to a shorter sequence MOL600: […]
Background: In an ELISA, binding on a coated surface is turned into a signal by an enzyme label.

For a further series, the system named is MOL136 and MOL136c. Briefly: Lateral flow assay with gold-labelled antisera on streptavidin capture zone. As to conditions: gold-labelled CF1064; peptide 1.3 ng/ml (38 μg per strip). Type of series: binding.
A further series has as its system sialidase. As to conditions: 25 U/ml sialidase in PBST for 5 minutes.
Series [1] relates to T1, MOL136c: biotin-PEG-Asp-Glu-DSer-Nva-Cyc-DAla-Ser[Gal-Sial]-DAla-Arg-Phe-DSer-Val-OH.
T1 sequence: DESXXASARFSV

Series [2] deals with T2, MOL600c: NH2-Cyc-DAla-Ser[Gal-Sial]-DAla-Arg-PEG-Biotin.
T2 sequence: XASAR

For the next series, the system named is MOL600. As to the kind of experiment: Antibody binding affinity and kinetics by bio-inferometry, peptide immobilised on biosensor by streptavidin/biotin. How it is done: (§1) MOL615 was biotinylated to yield MOL600 (sequence provided in Example 7) and antibody binding affinity and kinetics was measured using bio-inferometry. […] Binding of the antibody was detected by a shift in the reflected light interference.

Series [3] addresses T3, MOL600: NH2-Cyc-DAla-Ser[Gal]-DAla-Arg-PEG-Biotin (reading uncertain; also: printed as NH2-Cyc-DAla-Ser[Gal]-DAla-Arg-PEG-Biotin).
T3 construct: MOL600 is its de-sialylated form; Immobilised on a streptavidin biosensor through biotin
T3 peptide: H-[Ac6c][dA]S(Gal)[dA]R-{PEG-Biotin′}
Briefly: bio-layer interferometry, peptide immobilised on streptavidin biosensor, antibody at 1, 2, 4, 8 or 16 nM. The procedure:
as §1
For orientation: BLI is a label-free optical method that tracks binding on a fibre tip over time.

The mark [4] stands for this setting: antibody at 1, 2, 4, 8 or 16 nM, MOL600 immobilised.

Non-standard residues stand in square brackets, D forms with d. Primed or numbered codes have the meaning given here. Gal = galactose on Ser (no sialyl group); Biotin′ = not defined here; Ac6c = NC1(C(=O)O)CCCCC1; PEG = not defined here

Method for MOL136 and MOL136c: CF1064 was conjugated to gold particles in optimised conditions (15 μg/ml loading in 10 mM sodium borate buffer; pH 8.0) and assayed against MOL136 and MOL136c at a final concentration of 1.3 ng/ml (38 μg per strip). Thus, a capture zone was first formed on each lateral flow test strip using 1.5 mg/ml streptavidin. Then, 3 μl of each peptide (12.5 ng/ml peptide in PBST) was mixed with 10 μl of gold-labelled CF1064 and 15 μl of running buffer (0.5 M Tris at pH 7.5+3% BSA+0.5% Triton X-100) before each sample was run along a separate lateral flow test strip. A negative control in which no peptide was added was also run as a negative control. 15 μl of running buffer wash was then run along each lateral flow test strip.
Method for sialidase: Thus, a capture zone was first formed on each lateral flow test strip using 1.5 mg/ml streptavidin. Then, 3 μl of each peptide (12.5 ng/ml peptide in PBST) was mixed with 10 μl of gold-labelled CF1064 and 15 μl of running buffer (0.5 M Tris at pH 7.5+3% BSA+0.5% Triton X-100) before each sample was run along a separate lateral flow test strip. A negative control in which no peptide was added was also run as a negative control. 15 μl of running buffer wash was then run along each lateral flow test strip.
The procedure described in Example 4B was repeated in the presence of 25 U/ml sialidase. A sample in which sialidase was absent was used as a negative control. A further negative control was run in which no peptide and no sialidase was included in the sample. As a positive control, MOL136 was used in place of MOL136c in the presence of 25 U/ml sialidase.

As for “NH2—Cyc-DAla-Ser[Gal-Sial]-DAla-Arg-PEG-Biotin [MOL600c]”, in the series with antisera CF1064, the “performance compared with MOL136/MOL136c” value is listed as “significant improvement in performance”.

Turning to “NH2—Cyc-DAla-Ser[Gal]-DAla-Arg-PEG-Biotin [MOL600]”, the “performance compared with MOL136/MOL136c” value in the series with antisera CF1064 is listed as “significant improvement in performance”.

As for “biotin-PEG-Asp-Glu-DSer-Nva-Cyc-DAla-Ser[Gal-Sial]-DAla-Arg-Phe-DSer-Val-OH [MOL136c]”, the “signal in the capture zone (visible line on the test strip)” value with MOL136 and MOL136c is “little/no signal”. The “lateral flow signal after sialidase incubation” value in the series on sialidase was “clear positive signal”.

Take “biotin-PEG-Asp-Glu-DSer-Nva-Cyc-DAla-Ser[Gal]-DAla-Arg-Phe-DSer-Val-OH [MOL136]”: the “signal in the capture zone (visible line on the test strip)” value in the series with MOL136 and MOL136c was “clearly detected”.

On to sialidase, for which the “lateral flow test line signal with gold-labelled CF1064” value in series [1] is on record as “A clear positive signal was observed in respect of MOL136c incubated in the presence of 25 U/ml sialidase in PBST for 5 minutes”. For the same molecule, the “lateral flow test line signal” value in series [2] is listed as “signal has been recovered by spiking in sialidase”.

B1: antibody 125.1: rabbit monoclonal antibody, heavy chain SEQ ID NO: 7, light chain SEQ ID NO: 8, specific for Cyc-DAla-Ser[Gal]-DAla-Arg (antibody, listed as Oryctolagus cuniculus)
heavy: QSVEESGGRLVTPGTPLTLTCTVSGFSLSSYSMDWVRQAPGKGLEWVGGITTTLHTFYATWAKGRFTISKTSSTTVDLKMTSLTTDDAATYFCARGGSSVIWGPGTLVTVSSGQPKAPSVFPLAPCCGDTPSSTVTLGCLVKGYLPEPVTVTWNSGTLTNGVRTFPSVRQSSGLYSLSSVVSVTSSSQPVTCNVAHPATNTKVDKTVAPSTCSKPTCPPPELLGGPSVFIFPPKPKDTLMISRTPEVTCVVVDVSEDDPEVQFTWYINNEQVRTARPPLREQQFNSTIRVVSTLPIAHEDWLRGKEFKCKVHNKALPAPIEKTISKARGQPLEPKVYTMGPPREELSSRSVSLTCMINGFYPSDISVEWEKNGKAEDNYKTTPAVLDSDGSYFLYSKLSVPTSEWQRGDVFTCSVMHEALHNHYTQKSISRSPG
light: ALVMTQTPSPVSAAVGGTVTISCQSSQSVYGNNHLNWHQQKRGQPPKQLIGSASRLASGVPSRFKGSGSGTQFTLTISGVQCDDAATYYCQGSYYNGAWYVAFGGGTELEIKRDPVAPSVLLFPPSKEELTTGTATIVCVANKFYPSDITVTWKVDGTTQQSGIENSKTPQSPEDNTYSLSSTLSLTSAQYNSHSVYTCEVVQGSASPIVQSFNRGDC
On to B1, for which the “binding specificity for MOL600 compared to the sialylated form MOL600c” value in the series on MOL600 (FIG. 27) is “clearly specific for MOL600”. In the series on MOL600 (setting [4]), this molecule gave a Koff of 0.000427 s⁻¹ and a Kon of 54080 M⁻¹ s⁻¹.

B2: monoclonal antibody 125.1 (antibody, V domains shown)
VH: QSVEESGGRLVTPGTPLTLTCTVSGFSLSSYSMDWVRQAPGKGLEWVGGITTTLHTFYATWAKGRFTISKTSSTTVDLKMTSLTTDDAATYFCARGGSSVIWGPGTLVTVSS
VL: ALVMTQTPSPVSAAVGGTVTISCQSSQSVYGNNHLNWHQQKRGQPPKQLIGSASRLASGVPSRFKGSGSGTQFTLTISGVQCDDAATYYCQGSYYNGAWYVAFGGGTELEIKR
modifications: Pyro-Glu(Q) at N-terminal of heavy chain; N-linked glycosylation at constant region N@285; additional O-linked glycosylation site between positions 213 and 216 (partly occupied); C-terminal lysine eliminated
notes: Rabbit monoclonal from immunisation with KLH-MOL616; Gamma heavy chain and Kappa light chain
Turning to B2, in series [3], the affinity, expressed as Kd, was 7.9 nM; the dissociation rate constant (koff) (in general, the rate constant with which the complex falls apart) was determined as 0.000427 s⁻¹; the kon (in general, the rate constant with which the complex forms) was 54100 M⁻¹ s⁻¹.

The values are drawn from patent US20210293791A1, “BACTERIAL VAGINOSIS DIAGNOSTIC” (MOLOGIC LTD, priority 2018, published 2021).
